Test results published in paper PMC10130748.

Assays:
[1] = target: CD62P lectin domain R16E/K17E mutant
[2] = target: CD62P (P-selectin) lectin domain (residues 1–117), wild type; test: ELISA; wells coated with the CD62P lectin domain (WT, mutants, or lectin+EGF; 50 μg/ml where stated), blocked with BSA; soluble αvβ3 or αIIbβ3 (1 μg/ml) in HEPES-Tyrodes buffer with 1 mM MnCl2, 1 h, room temperature; bound integrin detected with anti-β3 mAb AV-10 and HRP anti-mouse IgG
Chain of CD62P (P-selectin) lectin domain (residues 1–117), wild type (P16109 42-158): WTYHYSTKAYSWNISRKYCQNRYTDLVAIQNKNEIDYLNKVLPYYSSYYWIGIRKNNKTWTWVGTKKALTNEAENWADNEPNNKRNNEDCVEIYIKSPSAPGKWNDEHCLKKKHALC

Chain of CD62P lectin domain R16E/K17E mutant (P16109 42-158 R57E/K58E): as the sequence (P16109 42-158) above, with R16E, K17E counted along it
Chain of integrin αvβ3 on β3-CHO cells (P05106 whole entry, looked up): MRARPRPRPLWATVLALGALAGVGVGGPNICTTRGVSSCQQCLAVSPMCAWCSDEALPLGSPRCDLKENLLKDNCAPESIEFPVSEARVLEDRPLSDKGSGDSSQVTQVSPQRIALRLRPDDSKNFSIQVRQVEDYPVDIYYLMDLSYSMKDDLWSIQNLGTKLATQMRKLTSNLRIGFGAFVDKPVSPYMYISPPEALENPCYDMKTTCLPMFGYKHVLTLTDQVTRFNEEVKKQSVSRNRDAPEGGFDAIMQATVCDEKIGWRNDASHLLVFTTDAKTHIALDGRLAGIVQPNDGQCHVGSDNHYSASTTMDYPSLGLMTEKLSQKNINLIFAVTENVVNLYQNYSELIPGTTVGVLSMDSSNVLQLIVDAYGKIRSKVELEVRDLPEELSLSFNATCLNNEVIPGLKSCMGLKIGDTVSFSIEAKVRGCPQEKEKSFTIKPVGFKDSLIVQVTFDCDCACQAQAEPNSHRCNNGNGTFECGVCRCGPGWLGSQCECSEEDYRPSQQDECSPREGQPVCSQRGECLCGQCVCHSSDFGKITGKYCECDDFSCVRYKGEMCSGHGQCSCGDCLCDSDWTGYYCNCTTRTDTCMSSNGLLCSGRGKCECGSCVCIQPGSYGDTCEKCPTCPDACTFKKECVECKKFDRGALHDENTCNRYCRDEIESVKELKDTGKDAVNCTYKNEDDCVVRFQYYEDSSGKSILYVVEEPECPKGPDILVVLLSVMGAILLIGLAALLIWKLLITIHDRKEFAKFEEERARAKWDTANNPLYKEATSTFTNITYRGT

fold binding relative to the combined lectin and EGF-like domains [2] [fold]	Substance	also measured
	integrin α5β1 on parent CHO cells (receptor)	static adhesion of parent CHO cells to wells coated with the R16E/K17E lectin domain (50 μg/ml), Mg2+ buffer [1]: 60 % reduced
2	soluble recombinant integrin αvβ3 (from UniProt P06756 31-1048; P05106 27-718) (receptor)	
	integrin αvβ3 on β3-CHO cells (from UniProt P05106 27-788) (receptor)	static adhesion of β3-CHO cells to wells coated with the R16E/K17E lectin domain (50 μg/ml), Mg2+ buffer [1]: 60 % reduced
2	soluble recombinant integrin αIIbβ3 (from UniProt P08514 32-1039; P05106 27-718) (receptor)	
